# Data reported in patent US20250154215A1, “PHARMACEUTICAL COMPOSITION FOR TREATING COLITIS OR COLORECTAL CANCER COMPRISING COLON-TARGETED S100A8/A9-DERIVED SPECIFIC PEPTIDE” (Industry-University Cooperation Foundation Hanyang …, priority 2023, published 2025).
# Key:
# OxaR-HCT116 = test: Co-IP and Western blot in parental and OxaR-HCT116 cells stimulated with rS100A8/9; format: cell-based
# Experimental: FIGS. 11A-11F show rCT-S100A8/A9 ameliorated oxaliplatin-resistant HCT116 xenograft tumor growth. […] Each vertical bar represents the mean±SD of cell viability at each dose. Data is shown as the mean±SD of six experiments. […] WCLs were used for IB including αTLR4, αRAGE, αS100A8, αS100A9, or αActin. […] HCT116 cells were injected subcutaneously into the flanks of nude mice. Tumor length and width were measured using calipers, and tumor volume was calculated every 3 days for 30 days. Representative images of tumors from mice treated with rCT-S100A8/9 on day 15 (middle). Statistical significance was determined by two-way analysis of variance (ANOVA) with Tukey's post hoc test. *P<0.05, ***P<0.001 compared to rVehicle. […] WCLs were used for IB including αTLR4, αRAGE, αS100A8, αS100A9, or αActin. […] Tumors were stained with H&E. Data is representative of seven independent experiments with similar results (FIGS. 11B, 11C, and 11E);
# 293T, BMDMs, and THP-1 cells were treated as indicated and processed for analysis by GST pulldown, Western blotting, and co-IP analysis. For GST pulldown, 293T cells were harvested and lysed in an NP-40 buffer including a complete protease inhibitor cocktail (Roche, Basel, Switzerland). After centrifugation, the supernatant was pre-cleared using protein A/G beads for two hours at 4° C. The pre-cleared lysates were mixed with a 50% slurry of glutathione-conjugated Sepharose beads (Amersham Biosciences, Amersham, UK), and binding reactions were performed for four hours at 4° C. by incubating the lysates at 4° C. The precipitate was extensively washed with a lysis buffer. Proteins bound to the glutathione beads were eluted by boiling for five minutes in a sodium dodecyl sulfate (SDS) loading buffer. For IP, cells were harvested and lysed in an NP-40 buffer supplemented with a complete protease inhibitor cocktail (Roche, Switzerland). After pre-clearing with protein A/G agarose beads for one hour at 4° C., whole cell lysates were used for IP using the indicated antibodies. Typically, 1 to […] of a commercial antibody was added to 1 ml of the cell lysate, and the resulting mixture was incubated for 8 to 12 hours at 4° C. After adding protein A/G agarose beads for six hours, immunoprecipitates were extensively washed with a lysis buffer and eluted with an SDS loading buffer by boiling for five minutes. For immunoblotting (IB), polypeptides were analyzed by SDS-polyacrylamide gel electrophoresis and transferred to polyvinylidene difluoride (PVDF) membranes (Bio-Rad, Hercules, CA, USA). Immunodetection was performed using specific antibodies. Antibody binding was visualized by chemiluminescence (ECL; Millipore, Burlington, MA, USA) and detected using a Vilber chemiluminescence analyzer (Fusion SL 3; Vilber Lourmat). […]
# [1] = parameters: species or system mice; details: mouse, in vivo
# Experimental: FIGS. 6A-6D show the effect of rCT-S100A8/A9 peptide on colon targeting. […] Mice were exposed to 3% DSS for six days and evaluated on day 6 (left). For IB with αITGA6, αITGB1, or αActin, multiple organ harvests were used and ITGA6+ or ITGB1+ cell numbers were analyzed through FACS. […] Intraperitoneal administration of rCT-S100A8/9 conjugated with Cy5.5 for one hour and colon harvest. Colon harvests were used for IB including αITGA6, αITGB1, or αActin and ITGA6+ or ITGB1+ cell numbers were analyzed through FACS. […] Mice were treated with 3% DSS for six days and administered 1, 2, or 3 doses of Texas Red conjugated with rCT-S100A8/9. Colons were harvested in a time-dependent manner and analyzed for Texas Red+ cell numbers through FACS. Data is representative of three independent experiments with similar results. Data is shown as the mean±SD of three experiments;
# S100A8 or S100A9 peptides or rCT-S100A8/9 was conjugated to Texas Red using the Texas Red® Conjugation Kit (Fast)-Lightning-Link (Abcam) to quantitatively measure cellular uptake in macrophages and pharmacodynamics in a colitis model. Cells were washed thoroughly and quickly with pulse spins and immediately acquired for analysis on FACSCalibur (BD Biosciences, San Jose, CA, USA). Data was plotted using CellQuest software (BD Biosciences) and analyzed using FlowJo software (Tree Star, Ashland, OR, USA). […]
# [2] = The results of in vitro plasma stability, microsomal stability, CYP inhibition and PK profile of S100A8/A9 peptides and rCT-S100A8/A9 proteins
# Experimental: Table printed on a drawing sheet, Fig. 5B
# Title: The results of in vitro plasma stability, microsomal stability, CYP inhibition and PK profile of S100A8/A9 peptides and rCT-S100A8/A9 proteins
# The patent's description of the figure: FIGS. 5A and 5B show the drug-like properties of rCT-S100A8/A9. […] Bacteria-purified 6×His-rCT-S100A8/9, rVehicle or rCT was analyzed by Coomassie staining or IB using αHis (bottom, left). BMDMs were incubated with rVehicle, rCT, or rCT-S100A8/9 for the indicated times and at the indicated concentrations, and then cell viability was measured by MTT assay (bottom, right). […] HLM, human liver microsomes; CYP, cytochrome P450. aTmax, arrival time; AUClast, total area under the plasma concentration-time curve from time 0 to the time of the last measurement; Cmax, maximum plasma concentration;
# First reader's note: One record is the S100A8/A9 peptide and the other the recombinant rCT-S100A8/A9 protein; the CYP columns give remaining CYP isoform activity (CYP inhibition).
# [3] = parental and OxaR-HCT116 cells, Western blot
molecule,measurement,setting,value
"TWYKIAFQRNRKTWYKIAFQRNRKTWYKIAFQRNRKTWYKIAFQRNRKTWYKIAFQRNRKGGFLVIKGGAHKSHKGGITIITFGGGHHGGFLVIKGGAHKSHKGGITIITFGGGHHGGFLVIKGGAHKSHKGGITIITFGGGHHGG (protein, N-terminal 6xHis tag) TWYKIAFQRNRKTWYKIAFQRNRKTWYKIAFQRNRKTWYKIAFQRNRKTWYKIAFQRNRKGGFLVIKGGAHKSHKGGITIITFGGGHHGGFLVIKGGAHKSHKGGITIITFGGGHHGGFLVIKGGAHKSHKGGITIITFGGGHHGG",S100-PRR interactions,"OxaR-HCT116; OxaR-HCT116, recombinant S100A8/A9 stimulated, 10, 20, 50 μg/ml",inhibited by increasing the concentration of rCT-S100A8/A9
same,"phosphorylation of EGFR, AKT, and NF-κB",OxaR-HCT116; parental and OxaR CRC cells,decreased
same,expression of epithelial marker (E-cadherin),OxaR-HCT116; [3],increase
same,expression of mesenchymal markers (N-cadherin and vimentin),OxaR-HCT116; [3],significant decrease
same,retained in the colon,[1],50%
same,Stability (% remaining after 30 min) | HLM,[2],92.1 % remaining after 30 min
